molecular target: Recombinant human FcγRIIIa-V158 (human, UniProt P08637 17-208); assay: SPR; -kif
Sequence (P08637 17-208 F176V): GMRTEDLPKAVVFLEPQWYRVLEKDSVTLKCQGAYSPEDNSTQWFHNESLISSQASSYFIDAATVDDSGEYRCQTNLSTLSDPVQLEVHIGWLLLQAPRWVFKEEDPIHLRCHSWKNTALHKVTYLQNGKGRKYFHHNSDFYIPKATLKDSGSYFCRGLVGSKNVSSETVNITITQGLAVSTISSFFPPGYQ

| Binder | Kd |
| --- | --- |
| human IgG1 antibody specific for protein 4, S239D/I332E + T256D/T307Q, -Kif (antibody) ASTKGPSVFPLAPSSKSTSGGTAALGCLVKDYFPEPVTVSWNSGALTSGVHTFPAVLQSSGLYSLSSVVTVPSSSLGTQTYICNVNHKPSNTKVDKKVEPKSCDKTHTCPPCPAPELLGGPDVFLFPPKPKDTLMISRDPEVTCVVVDVSHEDPEVKFNWYVDGVEVHNAKTKPREEQYNSTYRVVSVLQVLHQDWLNGKEYKCKVSNKALPAPEEKTISKAKGQPREPQVYTLPPSRDELTKNQVSLTCLVKGFYPSDIAVEWESNGQPENNYKTTPPVLDSDGSFFLYSKLTVDKSRWQQGNVFSCSVMHEALHNHYTQKSLSLSPGK | 12.3 nM |
| human IgG1 antibody specific for protein 4, T256D/T307Q + R292C/V302C, -Kif (antibody) ASTKGPSVFPLAPSSKSTSGGTAALGCLVKDYFPEPVTVSWNSGALTSGVHTFPAVLQSSGLYSLSSVVTVPSSSLGTQTYICNVNHKPSNTKVDKKVEPKSCDKTHTCPPCPAPELLGGPSVFLFPPKPKDTLMISRDPEVTCVVVDVSHEDPEVKFNWYVDGVEVHNAKTKPCEEQYNSTYRCVSVLQVLHQDWLNGKEYKCKVSNKALPAPIEKTISKAKGQPREPQVYTLPPSRDELTKNQVSLTCLVKGFYPSDIAVEWESNGQPENNYKTTPPVLDSDGSFFLYSKLTVDKSRWQQGNVFSCSVMHEALHNHYTQKSLSLSPGK | 410 nM |
| human IgG1 antibody specific for protein 4, S239D + T256D/T307Q + R292C/V302C, -Kif (antibody) ASTKGPSVFPLAPSSKSTSGGTAALGCLVKDYFPEPVTVSWNSGALTSGVHTFPAVLQSSGLYSLSSVVTVPSSSLGTQTYICNVNHKPSNTKVDKKVEPKSCDKTHTCPPCPAPELLGGPDVFLFPPKPKDTLMISRDPEVTCVVVDVSHEDPEVKFNWYVDGVEVHNAKTKPCEEQYNSTYRCVSVLQVLHQDWLNGKEYKCKVSNKALPAPIEKTISKAKGQPREPQVYTLPPSRDELTKNQVSLTCLVKGFYPSDIAVEWESNGQPENNYKTTPPVLDSDGSFFLYSKLTVDKSRWQQGNVFSCSVMHEALHNHYTQKSLSLSPGK | 87.5 nM |

— patent US20240166750A1 (published 2024)
